From patent US8445006B2, “Biomolecular coating for implants” (Georgia Tech Research Corporation, priority 2006, dated 2013)

Key:
α5β1 integrin = biological target: T1, α5β1 integrin (Mus musculus, UniProt P09055+P11688); test: Crosslinking/extraction immunostaining of bound integrin; assay type: cell-based, murine; settings: 4 h on saturated ligand-functionalized SAMs
T1 construct: endogenous in cells; host or cells: MC3T3-E1 murine osteoblast-like cells
Description: (§1) Surfaces were prepared on either 6-well plate lids or 35 mm tissue culture dishes, and cells seeded at 75 cells/mm^2 in serum-containing media for 4 h at 37° C. For integrin staining, a cross-linking/extraction biochemical method that selectively isolates bound integrins was employed. Cells were washed, and 1.0 mM DTSSP (Pierce) was added for 15 min to cross-link ligated integrins. After quenching with 50 mM Tris, uncrosslinked cellular components were extracted in 0.1% SDS supplemented with protease inhibitors (350 μg/ml PMSF). Samples were then blocked in 5% FBS for 1 h and incubated with integrin-specific antibodies for 1 h at 37° C. Fluorochrome-labeled secondary antibodies were then incubated for 1 h at 37° C. Following washing, samples were mounted on slides with Gel/Mount mounting media (Biomeda, Foster City, Calif.). For staining of focal adhesions, cells were extracted in 0.5% Triton X-100 in ice-cold cytoskeleton buffer (50 mM NaCl, 3 mM MgCl2, 150 mM sucrose, 20 μg/ml aprotonin, 1 μg/ml leupeptin, 1 mM PMSF, 50 mM Tris, pH 6.8) for 2 min and fixed in cold 3.7% formaldehyde in DPBS for 5 min. Cultures were blocked, subsequently incubated in anti-vinculin monoclonal antibody (1:70 in 5% FBS) and fluorochrome-labeled secondary antibodies for 1 h, and samples mounted on slides.
(§2) Since MC3T3-E1 cells assemble robust focal adhesions containing clustered integrins and intracellular structural and signaling proteins, integrin binding and focal adhesion assembly on the engineered interfaces was examined by staining for different integrin subunits and vinculin, which localizes to focal adhesions. MC3T3-E1 cells were allowed to adhere on each saturated ligand-functionalized support for 4 h and integrin binding was evaluated via a crosslinking/extraction and immunostaining protocol, which isolates integrins ligated to the ligand. […] The crosslinking and extraction technique relies in coupling free amines on both the receptor and ligand. Since the tethered RGD has no free amine, the αvβ3 staining in the RGD surfaces is attributed to focal adhesions that were not completely extracted. […] Both surfaces assembled focal adhesions containing vinculin.

αvβ3 integrin = biological target: T2, αvβ3 integrin (Mus musculus, UniProt O54890+P43406); test: as above; assay type: cell-based, murine; settings: 4 h on saturated ligand-functionalized SAMs
T2 construct: endogenous in cells; host or cells: MC3T3-E1 murine osteoblast-like cells
T2 sequence (P43406 31-885 limits assumed): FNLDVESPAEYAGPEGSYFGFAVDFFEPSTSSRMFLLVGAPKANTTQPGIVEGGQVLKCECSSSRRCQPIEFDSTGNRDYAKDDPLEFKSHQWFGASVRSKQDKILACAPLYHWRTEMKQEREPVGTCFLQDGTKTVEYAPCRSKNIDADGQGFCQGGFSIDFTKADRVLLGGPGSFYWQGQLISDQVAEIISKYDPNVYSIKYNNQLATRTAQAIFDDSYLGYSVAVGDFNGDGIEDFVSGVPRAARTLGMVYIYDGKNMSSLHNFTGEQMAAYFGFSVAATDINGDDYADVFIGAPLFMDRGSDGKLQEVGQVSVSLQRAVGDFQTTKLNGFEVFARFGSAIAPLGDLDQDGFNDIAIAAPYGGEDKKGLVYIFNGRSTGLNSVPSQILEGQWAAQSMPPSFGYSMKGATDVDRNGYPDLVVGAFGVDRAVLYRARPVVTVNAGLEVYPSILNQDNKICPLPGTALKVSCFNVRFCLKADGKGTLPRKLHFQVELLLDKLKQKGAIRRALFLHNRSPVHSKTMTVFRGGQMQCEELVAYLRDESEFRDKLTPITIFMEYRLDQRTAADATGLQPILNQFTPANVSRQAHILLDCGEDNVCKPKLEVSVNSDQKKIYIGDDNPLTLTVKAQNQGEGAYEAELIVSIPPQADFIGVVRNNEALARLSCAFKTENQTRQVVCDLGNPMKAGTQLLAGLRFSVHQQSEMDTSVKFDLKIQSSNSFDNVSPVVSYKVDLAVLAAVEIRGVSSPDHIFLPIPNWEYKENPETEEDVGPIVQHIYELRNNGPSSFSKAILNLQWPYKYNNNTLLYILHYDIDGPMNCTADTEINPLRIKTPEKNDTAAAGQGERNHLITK
T2 sequence (P43406 887-1044 limits assumed): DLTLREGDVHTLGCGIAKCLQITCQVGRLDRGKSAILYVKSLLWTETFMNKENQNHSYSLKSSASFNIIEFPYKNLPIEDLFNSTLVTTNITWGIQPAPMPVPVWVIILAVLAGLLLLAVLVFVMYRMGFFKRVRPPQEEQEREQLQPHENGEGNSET
T2 sequence (O54890 26-787): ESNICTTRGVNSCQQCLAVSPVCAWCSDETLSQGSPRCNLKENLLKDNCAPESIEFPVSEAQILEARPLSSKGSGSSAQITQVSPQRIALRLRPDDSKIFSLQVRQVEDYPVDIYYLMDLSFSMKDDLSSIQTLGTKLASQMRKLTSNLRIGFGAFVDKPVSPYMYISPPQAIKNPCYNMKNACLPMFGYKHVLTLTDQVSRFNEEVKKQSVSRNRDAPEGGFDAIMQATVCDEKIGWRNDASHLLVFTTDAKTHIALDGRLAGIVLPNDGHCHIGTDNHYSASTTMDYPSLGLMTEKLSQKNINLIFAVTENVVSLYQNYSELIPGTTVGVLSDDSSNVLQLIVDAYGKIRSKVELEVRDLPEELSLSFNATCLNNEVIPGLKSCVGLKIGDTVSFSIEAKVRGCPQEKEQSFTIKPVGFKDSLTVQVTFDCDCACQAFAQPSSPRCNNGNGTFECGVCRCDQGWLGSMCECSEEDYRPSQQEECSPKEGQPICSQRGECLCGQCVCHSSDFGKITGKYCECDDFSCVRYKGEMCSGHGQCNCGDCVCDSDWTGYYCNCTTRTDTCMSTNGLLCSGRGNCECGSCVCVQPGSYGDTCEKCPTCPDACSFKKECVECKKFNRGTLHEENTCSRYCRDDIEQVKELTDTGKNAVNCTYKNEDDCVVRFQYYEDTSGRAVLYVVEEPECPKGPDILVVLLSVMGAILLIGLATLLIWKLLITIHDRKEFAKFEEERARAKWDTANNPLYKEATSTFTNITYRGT
Description: as §1, §2

T1 sequence (P11688 45-898 limits assumed): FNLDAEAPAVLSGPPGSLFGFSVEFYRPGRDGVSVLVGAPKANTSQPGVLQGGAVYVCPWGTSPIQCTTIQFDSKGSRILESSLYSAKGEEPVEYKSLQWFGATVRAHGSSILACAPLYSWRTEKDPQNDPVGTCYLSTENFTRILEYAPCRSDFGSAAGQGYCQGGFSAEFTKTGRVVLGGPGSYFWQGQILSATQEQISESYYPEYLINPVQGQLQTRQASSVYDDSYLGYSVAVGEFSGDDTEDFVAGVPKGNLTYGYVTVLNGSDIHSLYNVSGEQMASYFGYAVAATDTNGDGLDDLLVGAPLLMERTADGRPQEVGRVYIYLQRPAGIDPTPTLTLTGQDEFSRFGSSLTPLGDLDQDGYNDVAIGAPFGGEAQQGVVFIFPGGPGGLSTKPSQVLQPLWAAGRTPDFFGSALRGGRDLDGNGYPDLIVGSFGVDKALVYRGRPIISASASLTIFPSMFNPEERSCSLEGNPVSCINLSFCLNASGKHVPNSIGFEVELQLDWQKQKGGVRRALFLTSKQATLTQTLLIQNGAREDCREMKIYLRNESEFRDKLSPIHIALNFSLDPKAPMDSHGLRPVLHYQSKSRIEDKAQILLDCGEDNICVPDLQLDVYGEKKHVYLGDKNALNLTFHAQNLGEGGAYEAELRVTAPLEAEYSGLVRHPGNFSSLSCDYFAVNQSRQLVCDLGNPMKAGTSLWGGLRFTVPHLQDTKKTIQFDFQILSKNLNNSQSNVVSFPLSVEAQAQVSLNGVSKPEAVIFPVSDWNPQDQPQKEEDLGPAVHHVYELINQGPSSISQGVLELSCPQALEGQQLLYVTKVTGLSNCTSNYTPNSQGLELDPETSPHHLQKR
T1 sequence (P11688 899-1053 limits assumed): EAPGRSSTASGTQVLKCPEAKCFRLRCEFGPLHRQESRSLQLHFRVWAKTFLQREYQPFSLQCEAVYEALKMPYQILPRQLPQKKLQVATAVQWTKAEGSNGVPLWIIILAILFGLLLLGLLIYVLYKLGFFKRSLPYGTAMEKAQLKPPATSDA
T1 sequence (P09055 21-798): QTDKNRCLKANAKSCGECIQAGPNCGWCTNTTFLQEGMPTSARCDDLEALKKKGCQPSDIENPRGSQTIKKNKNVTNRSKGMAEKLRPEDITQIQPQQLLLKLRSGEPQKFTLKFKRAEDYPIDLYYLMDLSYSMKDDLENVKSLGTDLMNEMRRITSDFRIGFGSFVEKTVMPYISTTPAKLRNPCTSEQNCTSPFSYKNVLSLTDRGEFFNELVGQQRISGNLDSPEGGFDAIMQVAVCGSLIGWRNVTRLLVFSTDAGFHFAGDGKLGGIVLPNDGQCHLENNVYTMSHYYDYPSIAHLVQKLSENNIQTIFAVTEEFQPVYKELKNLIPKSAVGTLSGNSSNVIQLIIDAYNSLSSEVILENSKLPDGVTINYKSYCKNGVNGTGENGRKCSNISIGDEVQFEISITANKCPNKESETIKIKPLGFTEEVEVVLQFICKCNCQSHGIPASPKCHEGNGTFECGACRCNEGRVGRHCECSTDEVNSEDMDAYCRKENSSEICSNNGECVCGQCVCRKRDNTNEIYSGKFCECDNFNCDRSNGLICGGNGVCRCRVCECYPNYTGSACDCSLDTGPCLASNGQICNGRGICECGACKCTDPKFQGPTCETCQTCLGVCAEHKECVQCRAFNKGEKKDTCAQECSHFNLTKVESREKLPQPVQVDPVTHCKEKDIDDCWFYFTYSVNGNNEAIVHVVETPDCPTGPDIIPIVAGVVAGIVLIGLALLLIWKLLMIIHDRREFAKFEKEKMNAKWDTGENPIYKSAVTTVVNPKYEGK

Substance | bound α5β1 integrin staining (α5β1 integrin) | bound αvβ3 integrin staining (αvβ3 integrin)
FNIII7-10: monobiotinylated recombinant fibronectin fragment spanning the 7-10th type III repeats of fibronectin; α5β1 integrin ligand | robust, well-defined adhesive structures containing α5β1 integrins | minimal αvβ3 binding
GRGDSPC [RGD peptide, linear RGD oligopeptide purchased from BACHEM; primarily supports αvβ3-mediated adhesion, reference compound] | little staining for α5β1 | clustering of αvβ3
